Assay results: patent US20200055952A1 (B CELL DESIGN, published 2020)

T1: CEACAM-6 (NCA or CD66c) (UniProt P40199 35-320, limits assumed)
T1 construct: whole, on cells
T1 sequence (looked up): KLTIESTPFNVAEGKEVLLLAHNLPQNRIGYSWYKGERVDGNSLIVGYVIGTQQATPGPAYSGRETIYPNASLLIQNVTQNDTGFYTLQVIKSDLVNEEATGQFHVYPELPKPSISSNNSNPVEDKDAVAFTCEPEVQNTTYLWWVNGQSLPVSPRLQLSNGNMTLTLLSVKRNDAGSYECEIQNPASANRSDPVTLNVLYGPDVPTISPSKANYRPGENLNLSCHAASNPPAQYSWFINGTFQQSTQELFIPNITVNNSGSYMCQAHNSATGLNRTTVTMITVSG


Experiments:
[1] = target: carcinoembryonic antigen (CEA) on WiDr human colorectal cancer cells (human) (UniProt P06731); assay: cell-based or functional assay
CEACAM-6 (NCA or CD66c) = target: T1, CEACAM-6 (NCA or CD66c); assay: immunofluorescence on tissues (liver and stomach) and flow cytometry on leukocytes, data not shown

doubly selected cells (Effector Cell (CD89+): WiDr target cells (CEA+)) by flow cytometry, in vivo in SCID-CD89 mice [1]	binding result (CEACAM-6 (NCA or CD66c))	Molecule
10.2%		irrelevant polymeric IgA anti-peanut (antibody)
	no binding	anti-CEA IgA monoclonal antibody clone 15B3 (human/mouse chimeric IgA1, hybridoma culture supernatant) (antibody, V domains shown, From HAMIGA mice: human IgA1 heavy chain constant regions, mouse light chain constant regions, mouse variable regions; The hybridoma supernatant holds monomeric (no J chain) and polymeric (murine J chain) forms; also called mAb 15B3; IgA anti-CEA clone #15B3) VH: QIQLVQSGPELKKPGETVKISCKASGYTFTNYGMNWVNQAPGKGLKWMGWINTNTGEPTYAEEFKGRFAFSLETSASTAYLQINNLKNEDTATYFCARLWYLYFDVWGAGTTVTVSS VL: DIQMTQSPASQSASLGESVTITCLASQTIGTRLAWYQQKPGKSPQLLIYAATRLADGVPSRFSGSGSGTKFSFKISSLQAEDFVSYYCQQLYSTPYTFGGGTKLEIK
